IntAct's records for PubMed 15485833

B1: Actin nucleation-promoting factor WASL (Homo sapiens), O00401 (parent)
chain: MSSVQQQPPPPRRVTNVGSLLLTPQENESLFTFLGKKCVTMSSAVVQLYAADRNCMWSKKCSGVACLVKDNPQRSYFLRIFDIKDGKLLWEQELYNNFVYNSPRGYFHTFAGDTCQVALNFANEEEAKKFRKAVTDLLGRRQRKSEKRRDPPNGPNLPMATVDIKNPEITTNRFYGPQVNNISHTKEKKKGKAKKKRLTKADIGTPSNFQHIGHVGWDPNTGFDLNNLDPELKNLFDMCGISEAQLKDRETSKVIYDFIEKTGGVEAVKNELRRQAPPPPPPSRGGPPPPPPPPHNSGPPPPPARGRGAPPPPPSRAPTAAPPPPPPSRPSVAVPPPPPNRMYPPPPPALPSSAPSGPPPPPPSVLGVGPVAPPPPPPPPPPPGPPPPPGLPSDGDHQVPTTAGNKAALLDQIREGAQLKKVEQNSRPVSCSGRDALLDQIRQGIQLKSVADGQESTPPTPAPTSGIVGALMEVMQKRSKAIHSSDEDEDEDDEEDFEDDDEWED

Variants of: B1
Conditions: with arpc1_yeast ARC40, P38328
arpc1_yeast ARC40, P38328, sequence (P38328 whole entry): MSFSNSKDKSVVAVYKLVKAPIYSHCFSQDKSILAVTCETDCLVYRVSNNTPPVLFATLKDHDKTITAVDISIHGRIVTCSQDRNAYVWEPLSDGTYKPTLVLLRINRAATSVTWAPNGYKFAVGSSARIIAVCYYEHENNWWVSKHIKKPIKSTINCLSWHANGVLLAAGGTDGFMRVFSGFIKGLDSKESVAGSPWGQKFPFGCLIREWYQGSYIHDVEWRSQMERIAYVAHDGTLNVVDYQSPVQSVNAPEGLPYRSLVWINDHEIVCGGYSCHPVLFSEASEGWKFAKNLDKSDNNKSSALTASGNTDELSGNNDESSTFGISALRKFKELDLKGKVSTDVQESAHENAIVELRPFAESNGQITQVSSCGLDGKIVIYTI
With MSSVQQQPPPPRRVTNVGSLLLTPQENESLFTFLGKKCVTMSSAVVQLYAADRNCMWSKKCSGVACLVKDNPQRSYFLRIFDIKDGKLLWEQELYNNFVYNSPRGYFHTFAGDTCQVALNFANEEEAKKFRKAVTDLLGRRQRKSEKRRDPPNGPNLPMATVDIKNPEITTNRFYGPQVNNISHTKEKKKGKAKKKRLTKADIGTPSNFQHIGHVGWDPNTGFDLNNLDPELKNLFDMCGISEAQLKDRETSKVIYDFIEKTGGVEAVKNELRRQAPPPPPPSRGGPPPPPPPPHNSGPPPPPARGRGAPPPPPSRAPTAAPPPPPPSRPSVAVPPPPPNRMYPPPPPALPSSAPSGPPPPPPSVLGVGPVAPPPPPPPPPPPGPPPPPGLPSDGDHQVPTTAGNKAALLDQIREGAQLKKVEQNSRPVSCSGRDALLDQIRQGIQLKSVADGQESTPPTPAPTSGIVGALMEVMQKRSKAIHSSDEDEDEDDEEDFEDDDEAED [W503A] the “effect of a mutation on the interaction” value was “decreasing interaction”.

Variants of: B1
Conditions: with arp3_yeast ARP3, P47117
arp3_yeast ARP3, P47117, sequence (P47117 whole entry): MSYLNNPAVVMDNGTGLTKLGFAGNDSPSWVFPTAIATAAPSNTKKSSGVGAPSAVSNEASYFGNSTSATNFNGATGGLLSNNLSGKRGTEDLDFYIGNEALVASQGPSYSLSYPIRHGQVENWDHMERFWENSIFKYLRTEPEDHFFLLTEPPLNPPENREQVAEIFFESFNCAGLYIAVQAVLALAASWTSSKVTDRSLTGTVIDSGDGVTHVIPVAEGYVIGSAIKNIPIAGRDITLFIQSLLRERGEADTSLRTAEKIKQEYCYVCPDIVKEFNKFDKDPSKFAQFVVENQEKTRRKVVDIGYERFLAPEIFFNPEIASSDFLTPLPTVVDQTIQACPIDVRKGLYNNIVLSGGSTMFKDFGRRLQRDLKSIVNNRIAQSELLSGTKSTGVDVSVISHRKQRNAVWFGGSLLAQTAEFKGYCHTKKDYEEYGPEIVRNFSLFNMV
In the case of MSSVQQQPPPPRRVTNVGSLLLTPQENESLFTFLGKKCVTMSSAVVQLYAADRNCMWSKKCSGVACLVKDNPQRSYFLRIFDIKDGKLLWEQELYNNFVYNSPRGYFHTFAGDTCQVALNFANEEEAKKFRKAVTDLLGRRQRKSEKRRDPPNGPNLPMATVDIKNPEITTNRFYGPQVNNISHTKEKKKGKAKKKRLTKADIGTPSNFQHIGHVGWDPNTGFDLNNLDPELKNLFDMCGISEAQLKDRETSKVIYDFIEKTGGVEAVKNELRRQAPPPPPPSRGGPPPPPPPPHNSGPPPPPARGRGAPPPPPSRAPTAAPPPPPPSRPSVAVPPPPPNRMYPPPPPALPSSAPSGPPPPPPSVLGVGPVAPPPPPPPPPPPGPPPPPGLPSDGDHQVPTTAGNKAALLDQIREGAQLKKVEQNSRPVSCSGRDALLDQIRQGIQLKSVADGQESTPPTPAPTSGIVGALMEVMQKRSKAIHSSDEDEDEDDEEDFEDDDEAED [W503A], the “effect of a mutation on the interaction” value is reported as “decreasing interaction”.

Variants of: B1
Conditions: with arp2_yeast ARP2, P32381
arp2_yeast ARP2, P32381, sequence (P32381 whole entry): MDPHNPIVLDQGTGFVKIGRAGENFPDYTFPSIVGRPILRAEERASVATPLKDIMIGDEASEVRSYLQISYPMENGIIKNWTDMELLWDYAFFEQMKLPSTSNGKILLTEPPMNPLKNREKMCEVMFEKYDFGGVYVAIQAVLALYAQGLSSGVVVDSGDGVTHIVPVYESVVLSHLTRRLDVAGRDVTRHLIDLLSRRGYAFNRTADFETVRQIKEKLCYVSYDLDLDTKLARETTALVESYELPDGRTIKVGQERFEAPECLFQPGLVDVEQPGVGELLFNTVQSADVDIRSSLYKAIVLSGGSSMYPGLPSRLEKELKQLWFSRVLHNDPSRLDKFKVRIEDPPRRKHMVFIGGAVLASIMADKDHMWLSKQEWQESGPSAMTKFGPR
In the case of MSSVQQQPPPPRRVTNVGSLLLTPQENESLFTFLGKKCVTMSSAVVQLYAADRNCMWSKKCSGVACLVKDNPQRSYFLRIFDIKDGKLLWEQELYNNFVYNSPRGYFHTFAGDTCQVALNFANEEEAKKFRKAVTDLLGRRQRKSEKRRDPPNGPNLPMATVDIKNPEITTNRFYGPQVNNISHTKEKKKGKAKKKRLTKADIGTPSNFQHIGHVGWDPNTGFDLNNLDPELKNLFDMCGISEAQLKDRETSKVIYDFIEKTGGVEAVKNELRRQAPPPPPPSRGGPPPPPPPPHNSGPPPPPARGRGAPPPPPSRAPTAAPPPPPPSRPSVAVPPPPPNRMYPPPPPALPSSAPSGPPPPPPSVLGVGPVAPPPPPPPPPPPGPPPPPGLPSDGDHQVPTTAGNKAALLDQIREGAQLKKVEQNSRPVSCSGRDALLDQIRQGIQLKSVADGQESTPPTPAPTSGIVGALMEVMQKRSKAIHSSDEDEDEDDEEDFEDDDEAED [W503A], the “effect of a mutation on the interaction” value is reported as “decreasing interaction”.
